Test results reported in patent US20250197490A1 (HBM ALPHA THERAPEUTICS, published 2025).

T1: corticotropin-releasing hormone (CRH) peptide (human and mouse, UniProt P01143 145-185 (rat entry), not fully specified)
T1 peptide: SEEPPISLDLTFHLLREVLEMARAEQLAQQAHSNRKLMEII


Key:
[1] = molecular target: T1, corticotropin-releasing hormone (CRH) …; assay: cell-based or functional assay
[2] = molecular target: T1, corticotropin-releasing hormone (CRH) …; assay: cell-based or functional assay

| Binder | hCRHR1-Luc 0.5 nM CRH IC50 [1] | unlabelled nM value (Table 5 matrix; likely hCRHR1-Luc IC50 as in Tables 6-8) [2] |
| --- | --- | --- |
| PR302309-17 (antibody, human IgG1, kappa, V domains shown) VH: QVQLVQSGSELKKPGASVKVSCKASGYTFTNYGMNWVRQAPGQGLEWMGWINTYTGEPIYTDDFKGRFVFSLDTSVSTAYLQISSLKAEDTAVYYCARSTMITTGGVFAYWGQGTLVTVSS VL: DVVMTQSPLSLPVTLGQPASISCRSSQTIVHSDGNTYLEWYQQRPGQSPRLLIYKVSNRFSGVPDRFSGSGSGTDFTLKISRVEAEDLGVYYCFQGSHVPWTFGGGTKVEIKR | 6.69 nM |  |
| PR302309-12 (antibody, human IgG1, kappa, V domains shown) VH: QIQLVQSGSELKKPGASVKVSCKASGYTFTNYGMNWVRQAPGQGLEWMGWINTYTGEPIYTDDFKGRFVFSLDTSVSTAYLQISSLKAEDTAVYYCSRSTMITTGGVFAYWGQGTLVTVSS VL: DVVMTQTPLSSPVTLGQPASISCRSSQTIVHSDGNTYLEWYQQRPGQPPRLLIYKVSNRFSGVPDRFSGSGAGTDFTLKISRVEAEDLGVYYCFQGSHVPWTFGGGTKVEIKR | 4.47 nM |  |
| PR302309-19 (antibody, human IgG1, kappa, V domains shown) VH: QIQLVQSGAEVKKPGASVKVSCKASGYTFTNYGMNWVRQAPGQRLEWMGWINTYTGEPIYTDDFKGRVTITLDTSASTAYMELSSLRSEDTAVYYCSRSTMITTGGVFAYWGQGTLVTVSS VL: DVVMTQSPLSLPVTLGQPASISCRSSQTIVHSDGNTYLEWYQQRPGQSPRLLIYKVSNRFSGVPDRFSGSGSGTDFTLKISRVEAEDLGVYYCFQGSHVPWTFGGGTKVEIKR | 4.83 nM |  |
| PR302309-7 (antibody, human IgG1, kappa, V domains shown) VH: QIQLVQSGSELKKPGASVKVSCKASGYTFTNYGMNWVRQAPGQGLEWMGWINTYTGEPIYTDDFKGRFVFSLDTSVSTAYLQISSLKAEDTAVYYCSRSTMITTGGVFAYWGQGTLVTVSS VL: DVVMTQSPLSLPVTLGQPASISCRSSQTIVHSDGNTYLEWFQQRPGQSPRRLIYKVSNRFSGVPDRFSGSGSGTDFTLKISRVEAEDVGVYYCFQGSHVPWTFGGGTKVEIKR | 6.38 nM |  |
| PR302309-20 (antibody, human IgG1, kappa, V domains shown) VH: QIQLVQSGAEVKKPGASVKVSCKASGYTFTNYGMNWVRQAPGQRLEWMGWINTYTGEPIYTDDFKGRVTITLDTSASTAYMELSSLRSEDTAVYYCSRSTMITTGGVFAYWGQGTLVTVSS VL: DVVMTQTPLSLSVTPGQPASISCRSSQTIVHSDGNTYLEWYLQKPGQSPQLLIYKVSNRFSGVPDRFSGSGSGTDFTLKISRVEAEDLGVYYCFQGSHVPWTFGGGTKVEIKR | 3.07 nM |  |
| PR302309-9 (antibody, human IgG1, kappa, V domains shown) VH: QIQLVQSGSELKKPGASVKVSCKASGYTFTNYGMNWVRQAPGQGLEWMGWINTYTGEPIYTDDFKGRFVFSLDTSVSTAYLQISSLKAEDTAVYYCSRSTMITTGGVFAYWGQGTLVTVSS VL: DIVMTQTPLSLSVTPGQPASISCRSSQTIVHSDGNTYLEWYLQKPGQSPQLLIYKVSNRFSGVPDRFSGSGSGTDFTLKISRVEAEDVGVYYCFQGSHVPWTFGGGTKVEIKR | 6.08 nM |  |
| PR302036 (antibody, human IgG1, kappa, V domains shown) VH: EMQLVESGGGLVQPGGSLRLSCAASGFTFSNYWMNWVRQAPGKGLEWVAEIRLKSNNYATHYAESVKGRFTISRDDSKSSVYLQMNSLKTEDTAVYYCTVGTLVYWGQGTLVTVSS VL: DIVLTQSPDSLAVSLGERATINCRASQSVSTSTYNYMHWFQQKPGQPPKLLIKFASNLESGVPDRFSGSGSGTDFTLTISSLQAEDTAVYYCQHSWEIPYTFGQGTKLEIKR |  | 1.4 nM |
| PR302038 (antibody, human IgG1, kappa, V domains shown) VH: EMQLVESGGGLVQPGGSLRLSCAASGFTFSNYWMNWVRQAPGKGLEWVAEIRLKSNNYATHYAESVKGRFTISRDDSKSSVYLQMNSLKTEDTAVYYCTVGTLVYWGQGTLVTVSS VL: EIVLTQSPATLSLSPGERATLSCRASQSVSTSTYNYMHWFQQKPGQAPRLLIKFASNLESGIPARFSGSGSGTDFTLTISSLEPEDTAVYYCQHSWEIPYTFGQGTKLEIKR |  | 3.34 nM |
| PR302045 (antibody, human IgG1, kappa, V domains shown) VH: EVQLVESGGGLVQPGGSLKLSCAASGFTFSNYWMNWVRQASGKGLEWVGEIRLKSNNYATHYAESVKGRFTISRDDSKNTAYLQMNSLKTEDTAVYYCTRGTLVYWGQGTLVTVSS VL: EIVLTQSPATLSLSPGERATLSCRASQSVSTSTYNYMHWFQQKPGQAPRLLIKFASNLESGIPARFSGSGSGTDFTLTISSLEPEDTAVYYCQHSWEIPYTFGQGTKLEIKR |  | 15.3 nM |
| PR302043 (antibody, human IgG1, kappa, V domains shown) VH: EVQLVESGGGLVQPGGSLKLSCAASGFTFSNYWMNWVRQASGKGLEWVGEIRLKSNNYATHYAESVKGRFTISRDDSKNTAYLQMNSLKTEDTAVYYCTRGTLVYWGQGTLVTVSS VL: DIVLTQSPDSLAVSLGERATINCRASQSVSTSTYNYMHWFQQKPGQPPKLLIKFASNLESGVPDRFSGSGSGTDFTLTISSLQAEDTAVYYCQHSWEIPYTFGQGTKLEIKR |  | 3.87 nM |
| PR302309-13 (antibody, human IgG1, kappa, V domains shown) VH: QVQLVQSGSELKKPGASVKVSCKASGYTFTNYGMNWVRQAPGQGLEWMGWINTYTGEPIYTDDFKGRFVFSLDTSVSTAYLQISSLKAEDTAVYYCARSTMITTGGVFAYWGQGTLVTVSS VL: DVLMAQTPLSLPVSLGDQASISCRSSQTIVHSDGNTYLEWYLQKPGQSPKLLIYKVSNRFSGVPDRFSGSGSGTDFTLKISRVEAEDLGVYYCFQGSHVPWTFGGGTKLEIKR | 7.23 nM |  |
| PR302309-14 (antibody, human IgG1, kappa, V domains shown) VH: QIQLVQSGSELKKPGASVKVSCKASGYTFTNYGMNWVRQAPGQGLEWMGWINTYTGEPIYTDDFKGRFVFSLDTSVSTAYLQISSLKAEDTAVYYCSRSTMITTGGVFAYWGQGTLVTVSS VL: DVLMAQTPLSLPVSLGDQASISCRSSQTIVHSDGNTYLEWYLQKPGQSPKLLIYKVSNRFSGVPDRFSGSGSGTDFTLKISRVEAEDLGVYYCFQGSHVPWTFGGGTKLEIKR | 1.68 nM |  |
| PR302309-15 (antibody, human IgG1, kappa, V domains shown) VH: QVQLVQSGAEVKKPGASVKVSCKASGYTFTNYGMNWVRQAPGQRLEWMGWINTYTGEPIYTDDFKGRVTITRDTSASTAYMELSSLRSEDTAVYYCARSTMITTGGVFAYWGQGTLVTVSS VL: DVLMAQTPLSLPVSLGDQASISCRSSQTIVHSDGNTYLEWYLQKPGQSPKLLIYKVSNRFSGVPDRFSGSGSGTDFTLKISRVEAEDLGVYYCFQGSHVPWTFGGGTKLEIKR | 10.5 nM |  |
| PR302309-16 (antibody, human IgG1, kappa, V domains shown) VH: QIQLVQSGAEVKKPGASVKVSCKASGYTFTNYGMNWVRQAPGQRLEWMGWINTYTGEPIYTDDFKGRVTITLDTSASTAYMELSSLRSEDTAVYYCSRSTMITTGGVFAYWGQGTLVTVSS VL: DVLMAQTPLSLPVSLGDQASISCRSSQTIVHSDGNTYLEWYLQKPGQSPKLLIYKVSNRFSGVPDRFSGSGSGTDFTLKISRVEAEDLGVYYCFQGSHVPWTFGGGTKLEIKR | 5.47 nM |  |

Other lines, results leading:

| hCRHR1-Luc 0.5 nM CRH IC50 [1] | unlabelled nM value (Table 5 matrix; likely hCRHR1-Luc IC50 as in Tables 6-8) [2] | Binder |
| --- | --- | --- |
| 1.08 nM |  | PR302309-6 (antibody, human IgG1, kappa, V domains shown) VH: QIQLVQSGPELKKPGETVKISCKASGYTFTNYGMNWVKQAPGKVLKWMGWINTYTGEPIYTDDFKGRFAFSLETSASTAYLQINNLKNEDTATYFCSRSTMITTGGVFAYWGQGTLVTVSA VL: DVVMTQTPLSSPVTLGQPASISCRSSQTIVHSDGNTYLEWYQQRPGQPPRLLIYKVSNRFSGVPDRFSGSGAGTDFTLKISRVEAEDLGVYYCFQGSHVPWTFGGGTKVEIKR |
| 8.44 nM |  | PR302309-21 (antibody, human IgG1, kappa, V domains shown) VH: QIQLVQSGAEVKKPGASVKVSCKASGYTFTNYGMNWVRQAPGQRLEWMGWINTYTGEPIYTDDFKGRVTITLDTSASTAYMELSSLRSEDTAVYYCSRSTMITTGGVFAYWGQGTLVTVSS VL: DVVMTQTPLSSPVTLGQPASISCRSSQTIVHSDGNTYLEWYQQRPGQPPRLLIYKVSNRFSGVPDRFSGSGAGTDFTLKISRVEAEDLGVYYCFQGSHVPWTFGGGTKVEIKR |
| 3.2 nM |  | PR302309-10 (antibody, human IgG1, kappa, V domains shown) VH: QIQLVQSGSELKKPGASVKVSCKASGYTFTNYGMNWVRQAPGQGLEWMGWINTYTGEPIYTDDFKGRFVFSLDTSVSTAYLQISSLKAEDTAVYYCSRSTMITTGGVFAYWGQGTLVTVSS VL: DVVMTQTPLSLSVTPGQPASISCRSSQTIVHSDGNTYLEWYLQKPGQSPQLLIYKVSNRFSGVPDRFSGSGSGTDFTLKISRVEAEDLGVYYCFQGSHVPWTFGGGTKVEIKR |
|  | 0.572 nM | PR302050 (antibody, human IgG1, kappa, V domains shown) VH: EMQLVESGGGLVQPGGSLKLSCAASGFTFSNYWMNWVRQASGKGLEWVAEIRLKSNNYATHYAESVKGRFTISRDDSKSTVYLQMNSLKTEDTAVYYCTVGTLVYWGQGTLVTVSS VL: DIVLTQSPDSLAVSLGERATINCRASQSVSTSTYNYMHWFQQKPGQPPKLLIKFASNLESGVPDRFSGSGSGTDFTLTISSLQAEDTAVYYCQHSWEIPYTFGQGTKLEIKR |
|  | 14 nM | PR302031 (antibody, human IgG1, kappa, V domains shown) VH: EVQLVESGGGLVQPGGSLRLSCAASGFTFSNYWMNWVRQAPGKGLEWVGEIRLKSNNYATHYAESVKGRFTISRDDSKNSLYLQMNSLKTEDTAVYYCTVGTLVYWGQGTLVTVSS VL: EIVLTQSPATLSLSPGERATLSCRASQSVSTSTYNYMHWFQQKPGQAPRLLIKFASNLESGIPARFSGSGSGTDFTLTISSLEPEDTAVYYCQHSWEIPYTFGQGTKLEIKR |
|  | 2.65 nM | PR302029 (antibody, human IgG1, kappa, V domains shown) VH: EVQLVESGGGLVQPGGSLRLSCAASGFTFSNYWMNWVRQAPGKGLEWVGEIRLKSNNYATHYAESVKGRFTISRDDSKNSLYLQMNSLKTEDTAVYYCTVGTLVYWGQGTLVTVSS VL: DIVLTQSPDSLAVSLGERATINCRASQSVSTSTYNYMHWFQQKPGQPPKLLIKFASNLESGVPDRFSGSGSGTDFTLTISSLQAEDTAVYYCQHSWEIPYTFGQGTKLEIKR |
|  | 0.674 nM | PR301777 (antibody, human IgG1, kappa, V domains shown) VH: EMKLEESGGGLVQPGGSMKLSCVASGFTFSNYWMNWVRQSPEKGLEWVAEIRLKSNNYATHYAESVKGRFTISRDDSKSGVYLQMNNLGAEDTGIYYCTVGTLVYWGQGTLVTVSA VL: DIVLTQSPASLAVSLGQRATISCRASQSVSTSTYNYMHWFQQKPGQPPKLLIKFASNLESGVPARFSGSGSGTDFTLNIHPVEEEDTATFYCQHSWEIPYTFGGGTKLEIKR |
